Source: patent US20130344073A1 (OMEROS, published 2013)

Target: T1, human MASP-3 (human)
T1 construct: For selection and FACS it was full-length or a fragment, fused to an Fc domain or labelled with Dylight; also called MASP-3 antigen; rMASP-3
T1 chain: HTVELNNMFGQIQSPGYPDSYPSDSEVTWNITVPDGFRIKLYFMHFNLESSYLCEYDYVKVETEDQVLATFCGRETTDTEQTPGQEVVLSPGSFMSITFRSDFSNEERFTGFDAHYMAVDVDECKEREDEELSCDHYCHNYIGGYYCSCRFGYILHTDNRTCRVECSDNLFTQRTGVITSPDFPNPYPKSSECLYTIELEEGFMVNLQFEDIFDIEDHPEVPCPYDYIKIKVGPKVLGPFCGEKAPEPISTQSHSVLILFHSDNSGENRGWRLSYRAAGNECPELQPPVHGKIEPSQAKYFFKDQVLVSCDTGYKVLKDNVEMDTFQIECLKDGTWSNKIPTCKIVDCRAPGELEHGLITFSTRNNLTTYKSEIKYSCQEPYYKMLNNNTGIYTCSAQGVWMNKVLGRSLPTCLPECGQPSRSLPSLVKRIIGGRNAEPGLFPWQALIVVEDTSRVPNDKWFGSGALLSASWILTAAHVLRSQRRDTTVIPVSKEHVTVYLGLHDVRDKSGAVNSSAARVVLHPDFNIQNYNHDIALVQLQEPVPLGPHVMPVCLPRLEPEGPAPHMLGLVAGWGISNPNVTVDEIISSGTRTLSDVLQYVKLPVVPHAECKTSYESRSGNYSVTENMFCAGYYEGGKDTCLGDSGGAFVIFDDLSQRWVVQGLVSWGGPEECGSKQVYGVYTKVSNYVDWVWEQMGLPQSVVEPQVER
Test: saturation binding; DTLacO cells expressing the antibody stained with various concentrations of fluorescent-labeled soluble antigen
From the text: Recombinant antibodies were generated by cloning PCR-amplified V regions into a vector that supported expression of human IgG1 in 293F cells (Yabuki et al., PLoS ONE, 7(4):e36032 (2012)).

Kd: ~31 nM
B1: MASP-3 specific clone M3J5 (antibody, V domains shown)
VH: AVTLDESGGGLQTPGGGLSLVCKASGFTFSSYAMGWMRQAPGKGLEYVAGIRSDGSFTLYATAVKGRATISRDNGQSTVRLQLNNLRAEDTATYFCTRSGNVGDIDAWGHGTEVIVSS
VL: ALTQPASVSANPGETVKITCSGGYSGYAGSYYYGWYQQKAPGSAPVTLIYYNNKRPSDIPSRFSGSLSGSTNTLTITGVRADDEAVYFCGSADNSGAAFGAGTTLTVL
notes: Chicken V regions; recombinant form is chimeric with human IgG1 and lambda constant regions; also called Clone 5; DTLacO clone M3J5
